Results as given in the supplement of paper PMC5998384.

Assays:
[1] = system: HeLa Kyoto; experiment: solubility in G1/S (NP-40 vs SDS abundance) (log2 ratio); higher = more soluble; conditions: cell cycle stage: G1/S
[2] = system: HeLa Kyoto; experiment: melting temperature (median over replicates), in situ; higher = more thermally stable
[3] = system: HeLa Kyoto; experiment: solubility change mitosis vs G1/S (difference of NP-40 vs SDS log2 ratios) (log2 ratio difference); higher = more soluble in mitosis
[4] = system: HeLa Kyoto; experiment: thermal stability score vs G1/S (z-score of summed log2 fold changes over temperatures); higher = more thermally stable than in G1/S
[5] = cell cycle stage: early G1 (4.5 h after nocodazole release)
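For melting temperature (median over replicates), in situ in this document: HeLa Kyoto cells synchronized by double thymidine or nocodazole block, proteins quantified by TMT10plex mass spectrometry, three independent biological replicates.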
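For solubility change mitosis vs G1/S (difference of NP-40 vs SDS log2 ratios) in this document: synchronized HeLa Kyoto cells (double thymidine block for G1/S, nocodazole release for mitosis), protein amounts in NP-40 versus SDS lysates quantified by mass spectrometry, three biological replicates.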
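For solubility in G1/S (NP-40 vs SDS abundance) in this document: HeLa Kyoto cells arrested at G1/S by double thymidine block, proteins quantified by TMT10plex mass spectrometry in mild NP-40 versus SDS extracts, three biological replicates.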
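For thermal stability score vs G1/S (z-score of summed log2 fold changes over temperatures) in this document: synchronized HeLa Kyoto cells, proteins quantified by TMT10plex mass spectrometry, three biological replicates, mitosis taken 0.5 h after nocodazole release, G1/S directly after double thymidine block.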

Row | Sequence | solubility in G1/S (log2) [1] | melting temperature ([2]; cell cycle stage: G1/S) [°C] | melting temperature ([2]; cell cycle stage: mitosis) [°C] | solubility change mitosis (log2) [3] | thermal stability score [4, 5] | thermal stability score ([4]; cell cycle stage: mitosis)
1 | MMSLSVRPQRRLLSARVNRSQSFAGVLGSHERGPSLSFRSFPVFSPPGPPRKPPALSRVSRMFSVAHPAAKVPQPERLDLVYTALKRGLTAYLEVHQQEQEKLQGQIRESKRNSRLGFLYDLDKQVKSIERFLRRLEFHASKIDELYEAYCVQRRLRDGAYNMVRAYTTGSPGSREARDSLAEATRGHREYTESMCLLESELEAQLGEFHLRMKGLAGFARLCVGDQYEICMKYGRQRWKLRGRIEGSGKQVWDSEETIFLPLLTEFLSIKVTELKGLANHVVVGSVSCETKDLFAALPQVVAVDINDLGTIKLSLEVTWSPFDKDDQPSAASSVNKASTVTKRFSTYSQSPPDTPSLREQAFYNMLRRQEELENGTAWSLSSESSDDSSSPQLSGTARHSPAPRPLVQQPEPLPIQVAFRRPETPSSGPLDEEGAVAPVLANGHAPYSRTLSHISEASVDAALAEASVEAVGPESLAWGPSPPTHPAPTHGEHPSPVPPALDPGHSATSSTLGTTGSVPTSTDPAPSAHLDSVHKSTDSGPSELPGPTHTTTGSTYSAITTTHSAPSPLTHTTTGSTHKPIISTLTTTGPTLNIIGPVQTTTSPTHTMPSPTHTTASPTHTSTSPTHTPTSPTHKTSMSPPTTTSPTPSGMGLVQTATSPTHPTTSPTHPTTSPILINVSPSTSLELATLSSPSKHSDPTLPGTDSLPCSPPVSNSYTQADPMAPRTPHPSPAHSSRKPLTSPAPDPSESTVQSLSPTPSPPTPAPQHSDLCLAMAVQTPVPTAAGGSGDRSLEEALGALMAALDDYRGQFPELQGLEQEVTRLESLLMQRQGLTRSRASSLSITVEHALESFSFLNEDEDEDNDVPGDRPPSSPEAGAEDSIDSPSARPLSTGCPALDAALVRHLYHCSRLLLKLGTFGPLRCQEAWALERLLREARVLEAVCEFSRRWEIPASSAQEVVQFSASRPGFLTFWDQCTERLSCFLCPVERVLLTFCNQYGARLSLRQPGLAEAVCVKFLEDALGQKLPRRPQPGPGEQLTVFQFWSFVETLDSPTMEAYVTETAEEVLLVRNLNSDDQAVVLKALRLAPEGRLRRDGLRALSSLLVHGNNKVMAAVSTQLRSLSLGPTFRERALLCFLDQLEDEDVQTRVAGCLALGCIKAPEGIEPLVYLCQTDTEAVREAARQSLQQCGEEGQSAHRRLEESLDALPRIFGPGSMASTAF [FAM65A] | 0.0594 | 50.1 | 49.7 | -0.096 | 0.236 | 1.49
2 | MNAARTGYRVFSANSTAACTELAKRITERLGAELGKSVVYQETNGETRVEIKESVRGQDIFIIQTIPRDVNTAVMELLIMAYALKTACARNIIGVIPYFPYSKQSKMRKRGSIVCKLLASMLAKAGLTHIITMDLHQKEIQGFFSFPVDNLRASPFLLQYIQEEIPNYRNAVIVAKSPDAAKRAQSYAERLRLGLAVIHGEAQCTELDMDDGRHSPPMVKNATVHPGLELPLMMAKEKPPITVVGDVGGRIAIIVDDIIDDVESFVAAAEILKERGAYKIYVMATHGILSAEAPRLIEESSVDEVVVTNTVPHEVQKLQCPKIKTVDISLILSEAIRRIHNGESMAYLFRNITVDD [PRPSAP1] | 0.0529 | 55.6 | 54.6 | -0.211 | -0.299 | -2.79
3 | MNFAEREGSKRYCIQTKHVAILCAVVVGVGLIVGLAVGLTRSCDSSGDGGPGTAPAPSHLPSSTASPSGPPAQDQDICPASEDESGQWKNFRLPDFVNPVHYDLHVKPLLEEDTYTGTVSISINLSAPTRYLWLHLRETRITRLPELKRPSGDQVQVRRCFEYKKQEYVVVEAEEELTPSSGDGLYLLTMEFAGWLNGSLVGFYRTTYTENGQVKSIVATDHEPTDARKSFPCFDEPNKKATYTISITHPKEYGALSNMPVAKEESVDDKWTRTTFEKSVPMSTYLVCFAVHQFDSVKRISNSGKPLTIYVQPEQKHTAEYAANITKSVFDYFEEYFAMNYSLPKLDKIAIPDFGTGAMENWGLITYRETNLLYDPKESASSNQQRVATVVAHELVHQWFGNIVTMDWWEDLWLNEGFASFFEFLGVNHAETDWQMRDQMLLEDVLPVQEDDSLMSSHPIIVTVTTPDEITSVFDGISYSKGSSILRMLEDWIKPENFQKGCQMYLEKYQFKNAKTSDFWAALEEASRLPVKEVMDTWTRQMGYPVLNVNGVKNITQKRFLLDPRANPSQPPSDLGYTWNIPVKWTEDNITSSVLFNRSEKEGITLNSSNPSGNAFLKINPDHIGFYRVNYEVATWDSIATALSLNHKTFSSADRASLIDDAFALARAQLLDYKVALNLTKYLKREENFLPWQRVISAVTYIISMFEDDKELYPMIEEYFQGQVKPIADSLGWNDAGDHVTKLLRSSVLGFACKMGDREALNNASSLFEQWLNGTVSLPVNLRLLVYRYGMQNSGNEISWNYTLEQYQKTSLAQEKEKLLYGLASVKNVTLLSRYLDLLKDTNLIKTQDVFTVIRYISYNSYGKNMAWNWIQLNWDYLVNRYTLNNRNLGRIVTIAEPFNTELQLWQMESFFAKYPQAGAGEKPREQVLETVKNNIEWLKQHRNTIREWFFNLLESG [ENPEP] | -0.159 | 57.4 | 55.9 | 0.193 | -1.64 | -0.842
4 | MNGDSRAAVVTSPPPTTAPHKERYFDRVDENNPEYLRERNMAPDLRQDFNMMEQKKRVSMILQSPAFCEELESMIQEQFKKGKNPTGLLALQQIADFMTTNVPNVYPAAPQGGMAALNMSLGMVTPVNDLRGSDSIAYDKGEKLLRCKLAAFYRLADLFGWSQLIYNHITTRVNSEQEHFLIVPFGLLYSEVTASSLVKINLQGDIVDRGSTNLGVNQAGFTLHSAIYAARPDVKCVVHIHTPAGAAVSAMKCGLLPISPEALSLGEVAYHDYHGILVDEEEKVLIQKNLGPKSKVLILRNHGLVSVGESVEEAFYYIHNLVVACEIQVRTLASAGGPDNLVLLNPEKYKAKSRSPGSPVGEGTGSPPKWQIGEQEFEALMRMLDNLGYRTGYPYRYPALREKSKKYSDVEVPASVTGYSFASDGDSGTCSPLRHSFQKQQREKTRWLNSGRGDEASEEGQNGSSPKSKTKWTKEDGHRTSTSAVPNLFVPLNTNPKEVQEMRNKIREQNLQDIKTAGPQSQVLCGVVMDRSLVQGELVTASKAIIEKEYQPHVIVSTTGPNPFTTLTDRELEEYRREVERKQKGSEENLDEAREQKEKSPPDQPAVPHPPPSTPIKLEEDLVPEPTTGDDSDAATFKPTLPDLSPDEPSEALGFPMLEKEEEAHRPPSPTEAPTEASPEPAPDPAPVAEEAAPSAVEEGAAADPGSDGSPGKSPSKKKKKFRTPSFLKKSKKKSDS [ADD1] | 0.119 | 55.2 | 55.1 | 0.0666 | -4.45 | -3.29
